From publication PMC10477244 come the findings set out here.

As usually defined, the Kd is the free concentration of one partner at which half of the binding sites on the other are occupied at equilibrium, for simple one-to-one binding.

Positions count from the first letter of the chain named.

In data set [1] the target is T1, SARS-CoV-2 spike RBD (BEI NR-53800) (SARS-CoV-2 Wuhan-Hu-1, UniProt P0DTC2 319-541). Nature of the data set: fluorescence binding, carbon-dot aptamer on Ni-NTA@RBD.
In data set [2] the target is T1, SARS-CoV-2 spike RBD (BEI NR-53800). The data set is described as follows: ELISA-type bead assay (SA-HRP/TMB); 0.3 uM aptamer. On the technique in general: In an ELISA, binding on a coated surface is turned into a signal by an enzyme label.
For data set [3] the target is unchanged. The data set is described as follows: ELISA-type bead assay (SA-HRP/TMB).

B1: aptamer R (Apt@R2) (ssDNA)
DNA: GGTATTGAGGGTCGCATCGTTACTGGACCAAACAGCACAAAGGACGCCCATAAACCCGGATGGCTCTAACTCTCCTCT
In data set [1], B1 had a Kd of 125 nM.

B2: aptamer S (Apt@S2) (ssDNA)
DNA: GGTATTGAGGGTCGCATCGAAACAGGGCGTGATACGACGCGACGGCGTACTGTGGTGGGATGGCTCTAACTCTCCTCT
For B2, the binding result in data set [2] is recorded as “binds”.

B3: aptamer W (Apt@W2) (ssDNA)
DNA: B2 DNA with A21C, A24C, C28A, A37T, C43G, G44C, G45A, G55T
In the case of B3, in data set [3], the binding result is reported as “binds”.

B4: aptamer T (Apt@T2) (ssDNA)
DNA: GGTATTGAGGGTCGCATCGTAATAGCGCATGTTGTGAGGCAGGCGCGAATCAGCTCGTGAGATGGCTCTAACTCTCCTCT
On to B4, for which the binding result in data set [2] was “binds”.

B5: aptamer U (Apt@U2) (ssDNA)
DNA: GGTATTGAGGGTCGCATCGTAATAGCGCATGTTGTGAGGCGGCGGAGTCATGTCGTGGGATGGCTCTAACTCTCCTCT
Consider B5, for which the binding result in data set [3] is “binds”.
